Data from US20260234738A1 (Regeneron, published 2026).

Legend:
SARS-COV-2 RBD-hFc = SARS-COV-2 RBD-hFc (SARS-CoV-2)
[1] = target: SARS-COV-2 spike protein receptor binding domain (amino acids Arg319 to Phe541) expressed with the F (SARS-CoV-2)

Row | Binder | IC50 (read off the curve) (SARS-COV-2 RBD-hFc) | Kd [1] | koff [1] | kon [1] | t½ [1]
1 | mAb10978 (antibody) heavy chain: QVQLVESGGGVVQPGRSLRLSCAASGFTFSSYAMHWVRQAPGKGLEWVAVISYDGSNKYYADSVKGRFTISRDNSKNTLYLQMNSLRAEDTAVYYCARDGRTITMVRGVIDDAFDIWGQGTMVTVSSASTKGPSVFPLAPCSRSTSESTAALGCLVKDYFPEPVTVSWNSGALTSGVHTFPAVLQSSGLYSLSSVVTVPSSSLGTKTYTCNVDHKPSNTKVDKRVESKYGPPCPPCPAPGGGGPSVFLFPPKPKDTLMISRTPEVTCVVVDVSQEDPEVQFNWYVDGVEVHNAKTKPREEQFNSTYRVVSVLTVLHQDWLNGKEYKCKVSNKGLPSSIEKTISKAKGQPREPQVYTLPPSQEEMTKNQVSLTCLVKGFYPSDIAVEWESNGQPENNYKTTPPVLDSDGSFFLYSRLTVDKSRWQEGNVFSCSVMHEALHNHYTQKSLSLSLGK light chain: not shown | ~0.1 nM |  |  |  | 
2 | mAb10998 (antibody, V domains shown) VH: EVQLVESGGGLVHPGGSLRLSCAASGLTVSSNYMSWVRQAPGKGLEWVSVIYSGGSTYYADSVKGRFTISRHNSKNTLFLQMNSLRAEDTAVYYCARDRPITGTTLDVWGQGTTVTVSS VL: DIQMTQSPSSLFASVGDRVTITCRASQSISSYLNWYQQKPGKAPKLLIYAASSLQSGVPSRFSGSGSGTDFTLTISSLQPEDFAFYYCQQTYSTPPITFGQGTRLEIK |  | 1.58 nM | 0.000521 s⁻¹ | 330000 M⁻¹ s⁻¹ | 22.2 min
3 | mAb11002 (antibody, V domains shown) VH: EVQLVESGGGLVQPGGSLRLSCAASGFTVSSNYMSWVRQAPGKGLEWVSVIYSGGSTFYADSVKGRFTISRHNSKNTLYLQMNSLRAEDTAVYYCAREGYGMDVWGQGTTVTVSS VL: not shown |  | 16.7 nM |  |  | 2.6 min
